Test results taken from patent US20260152573A1 (ARGENX, published 2026).
Positions count from the first letter of the chain named. Names may count otherwise.

B1: OA-Fc-ABDEG-Alb23 (Fc fusion)
chain: DKTHTCPPCPAPELLGGPSVFLFPPKPKDTLYITREPEVTCVVVDVSHEDPEVKFNWYVDGVEVHNAKTKPREEQYNSTYRVVSVLTVLHQDWLNGKEYKCKVSNKALPAPIEKTISKAKGQPREPQVYTLPPSRDELTKNQVSLWCLVKGFYPSDIAVEWESNGQPENNYKTTPPVLDSDGSFFLYSKLTVDKSRWQQGNVFSCSVMHEALKFHYTQKSLSLSPGGGGGSGGGGSGGGGSGGGGSEVQLLESGGGLVQPGGSLRLSCAASGFTFRSFGMSWVRQAPGKGPEWVSSISGSGSDTLYADSVKGRFTISRDNSKNTLYLQMNSLRPEDTAVYYCTIGGSLSRSSQGTLVTVSS
Fc: DKTHTCPPCPAPELLGGPSVFLFPPKPKDTLYITREPEVTCVVVDVSHEDPEVKFNWYVDGVEVHNAKTKPREEQYNSTYRVVSVLTVLHQDWLNGKEYKCKVSNKALPAPIEKTISKAKGQPREPQVYTLPPSRDELTKNQVSLSCAVKGFYPSDIAVEWESNGQPENNYKTTPPVLDSDGSFFLVSKLTVDKSRWQQGNVFSCSVMHEALKFHYTQKSLSLSPG
notes: also called one-armed Fc-ABDEG-Alb23; OA-Fc-ABDEG-Alb23 (parental)
B2: TA-Fc-ABDEG-2H11 (Fc fusion)
chain: GGGGSGGGGSGGGGSGGGGSELQVVESGGGLVQAGGSLRLSCAASGRTFRSNTMGWFRQAPGKEREFVAAITWSGGTTYYADSVKGRFAISGDNAKNTVYLQMNSLKPEDTAVYYCAAEGPKWEPWNGIYHPADFGSWGQGTQVTVSS
notes: also called 2H11 parental (two-armed Fc-ABDEG-20GS-Cterm fusion); not shown: Fc-ABDEG domain
B3: 2H11-v3 fused at the C-terminus of Fc-ABDEG (two-armed) (Fc fusion)
chain: B2 chain with P121A
notes: not shown: Fc-ABDEG domain
B4: 2H11-v15 fused at the C-terminus of Fc-ABDEG (two-armed) (Fc fusion)
chain: B2 chain with D134A
notes: not shown: Fc-ABDEG domain
B5: 2H11-v12 fused at the C-terminus of Fc-ABDEG (two-armed) (Fc fusion)
chain: B2 chain with Y130A
notes: not shown: Fc-ABDEG domain
B6: 2H11-v16 fused at the C-terminus of Fc-ABDEG (two-armed) (Fc fusion)
chain: B2 chain with F135A
notes: not shown: Fc-ABDEG domain
B7: Alb23 F32A (VHH)
VHH: EVQLLESGGGLVQPGGSLRLSCAASGFTFRSAGMSWVRQAPGKGPEWVSSISGSGSDTLYADSVKGRFTISRDNSKNTLYLQMNSLRPEDTAVYYCTIGGSLSRSSQGTLVTVSS
notes: VHH alone
B8: Alb23 D57A (VHH)
VHH: B7 VHH with A32F, D57A
notes: VHH alone
B9: Alb23 T58A (VHH)
VHH: B7 VHH with A32F, T58A
notes: VHH alone
B10: Alb23 S50A (VHH)
VHH: B7 VHH with A32F, S50A
notes: VHH alone
B11: Alb23 S103A (VHH)
VHH: B7 VHH with A32F, S103A
notes: VHH alone
B12: Alb23 S54A (VHH)
VHH: B7 VHH with A32F, S54A
notes: VHH alone
B13: Alb23 V64A (VHH)
VHH: B7 VHH with A32F, V64A
notes: VHH alone
B14: Alb23 G66A (VHH)
VHH: B7 VHH with A32F, G66A
notes: VHH alone
B15: Alb23 Y60A (VHH)
VHH: B7 VHH with A32F, Y60A
notes: VHH alone
B16: Alb23 R104A (VHH)
VHH: B7 VHH with A32F, R104A
notes: VHH alone
B17: Alb23 I51A (VHH)
VHH: B7 VHH with A32F, I51A
notes: VHH alone
B18: Alb23 K65A (VHH)
VHH: B7 VHH with A32F, K65A
notes: VHH alone
B19: Alb23 S31A (VHH)
VHH: B7 VHH with S31A, A32F
notes: VHH alone
B20: Alb23 D62A (VHH)
VHH: B7 VHH with A32F, D62A
notes: VHH alone
B21: Alb23 S56A (VHH)
VHH: B7 VHH with A32F, S56A
notes: VHH alone
B22: Alb23 S35A (VHH)
VHH: B7 VHH with A32F, S35A
notes: VHH alone
B23: OA-Fc-ABDEG-Alb23-S52A (Fc fusion)
chain: B1 chain with S298A
Fc: B1 Fc
B24: OA-Fc-ABDEG-Alb23-S101T (Fc fusion)
chain: B1 chain with S347T
Fc: B1 Fc
B25: OA-Fc-ABDEG-Alb23-G33A/G53A (Fc fusion)
chain: B1 chain with G279A, G299A
Fc: B1 Fc
B26: OA-Fc-ABDEG-Alb23-S52A/S101A (Fc fusion)
chain: B1 chain with S298A, S347A
Fc: B1 Fc
B27: OA-Fc-ABDEG-Alb23-S52A/G53A (Fc fusion)
chain: B1 chain with S298A, G299A
Fc: B1 Fc
B28: OA-Fc-ABDEG-Alb23-S101A (Fc fusion)
chain: B1 chain with S347A
Fc: B1 Fc
B29: OA-Fc-ABDEG-Alb23-G53A (Fc fusion)
chain: B1 chain with G299A
Fc: B1 Fc
B30: OA-Fc-ABDEG-Alb23-G33A (Fc fusion)
chain: B1 chain with G279A
Fc: B1 Fc

Target: T1, neonatal Fc receptor (FcRn), endogenous in U937 cells (human, UniProt P55899 24-365; P61769 21-119)
T1 construct: whole, on cells; Free FcRn was stained intracellularly after fixation and permeabilisation
T1 sequence (P55899 24-365 limits assumed, chain 1 of 2): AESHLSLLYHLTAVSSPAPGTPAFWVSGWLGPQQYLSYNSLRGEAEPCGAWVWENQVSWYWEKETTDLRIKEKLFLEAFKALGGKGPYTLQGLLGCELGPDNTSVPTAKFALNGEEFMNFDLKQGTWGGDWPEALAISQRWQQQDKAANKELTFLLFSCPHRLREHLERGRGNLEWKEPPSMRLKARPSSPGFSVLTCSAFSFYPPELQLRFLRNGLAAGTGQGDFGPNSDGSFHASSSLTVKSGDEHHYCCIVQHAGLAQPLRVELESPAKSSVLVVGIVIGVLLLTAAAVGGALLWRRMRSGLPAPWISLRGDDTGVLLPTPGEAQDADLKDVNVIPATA
T1 sequence (P61769 21-119 limits assumed, chain 2 of 2): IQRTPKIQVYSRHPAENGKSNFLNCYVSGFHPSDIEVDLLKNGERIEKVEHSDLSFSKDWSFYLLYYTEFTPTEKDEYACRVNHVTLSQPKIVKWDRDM
Assay: FcRn occupancy, FACS, U937 cells, with albumin
Protocol: Next, FcRn occupancy was tested using a cell-based FcRn occupancy assay in the presence or absence of albumin. […] Cells (HEK FcRn mut or U937) were plated in a 96-well microplate. Cells were incubated with test article for two hours, shaking at 37° C., pH 7.4 in FACS buffer. Plates were then transferred immediately on ice and cells were collected by centrifugation at 4° C. Cells stained for viability in FACS buffer at pH 6 and then fixed/permeabilized in permeabilization buffer at pH 6. […] Cells were analyzed by FACS, ensuring that they are kept on ice until immediately prior to analysis.

Binder	% max occupancy [%]	IC50 [nM]
B1	67.4	5.2

Target: T2, human serum albumin (human, UniProt P02768 25-609)
T2 construct: Immobilised on SPR chips; also added in solution in the FcRn occupancy assays; also called HSA; humanSA
Assay: SPR Biacore 3000, HSA on chip, pH 7.4

Binder	R0 pH 7.4 [RU]	koff [s⁻¹]
B2	115	0.00072
B3	8.24	0.0029
B4	0.635	0.0025
B5	6.32	0.0012
B6	0.571	0.00193

Target: T2, human serum albumin
Assay: SPR Biacore 8K+ SCK, albumin on chip, pH 7.4

Binder	fold decrease in affinity compared to the parental Alb23 VHH fragment [fold]
B7	≥ 10

Target: T3, mouse serum albumin (mouse, UniProt P07724 25-608)
T3 construct: Immobilised on SPR chips; also called mouseSA; MSA
Assay: SPR Biacore 8K+ SCK, albumin on chip, pH 7.4

Binder	Kd [nM]
B8	50.6
B9	57.1
B10	19
B11	38.2
B12	25.6
B13	31.9
B14	39.5
B15	42.2
B16	49.7
B17	42.3
B18	52.3
B19	29.3
B20	36.5
B21	37.7
B22	37.6

Target: T4, cynomolgus monkey serum albumin (cynomolgus monkey, UniProt A2V9Z4 25-608)
T4 construct: Immobilised on SPR chips; also called cynoSA; cynomolgus albumin
Assay: SPR Biacore 8K+ SCK, albumin on chip, pH 7.4

Binder	Kd [nM]
B8	6.25
B9	6.83
B10	2.6
B11	4.2
B12	3.13
B13	4.11
B14	5.84
B15	4.58
B16	4.92
B17	5.53
B18	3.18
B19	3.74
B20	3.48
B21	3.65
B22	5.24

Target: T2, human serum albumin
Assay: SPR Biacore 8K+ SCK, albumin on chip, pH 7.4
Remark: another data set of the same source

Binder	Kd [nM]
B8	5.58
B9	5.97
B10	2.33
B11	3.85
B12	2.81
B13	2.9
B14	3.97
B15	4.28
B16	4.58
B17	5.17
B18	5.36
B19	3.36
B20	3.07
B21	3.33
B22	4.95

Target: T2, human serum albumin
Assay: SPR Biacore 3000, HSA on chip, ratio of R0 at pH 5.5 and pH 7.4

Binder	R0 5.5/7.4
B2	3
B3	19.9
B4	370
B5	14.9
B6	16

Target: T2, human serum albumin
Assay: SPR Biacore, HSA coated, kinetic fit, pH 7.4

Binder	Kd [nM]
B23	167
B24	206
B25	499
B26	501
B27	204
B28	255
B29	78.8
B30	150

Target: T2, human serum albumin
Assay: SPR Biacore 3000, HSA on chip, pH 5.5

Binder	R0 pH 5.5 [RU]	koff [s⁻¹]
B2	351	0.00016
B3	164	0.000135
B4	235	0.00174
B5	93.9	9.72e-05
B6	8.91	0.00301

Target: T2, human serum albumin
Assay: SPR Biacore, HSA coated, kinetic fit, pH 5.5

Binder	Kd [nM]
B1	16.6
B23	34.2
B24	54.9
B25	90.2
B26	95.6
B27	47.7
B28	54.3
B29	20.6
B30	124

Target: T2, human serum albumin
Assay: SPR Biacore, HSA coated, steady state, pH 5.5

Binder	Kd [nM]
B1	32.7
B23	49.5
B24	70.8
B25	135
B26	124
B27	65.9
B28	67.5
B29	36.7
B30	145

Target: T2, human serum albumin
Assay: SPR Biacore, HSA coated, steady state, pH 7.4

Binder	Kd [nM]
B23	27.3
B24	315
B25	767
B26	579
B27	298
B28	353
B29	158
B30	863
